According to publication PMC8822174:

Columns and labels:
[1] = target: swine fibronectin (swine); assay: SPR
[2] = target: swine plasminogen (swine); assay: SPR

Substance | Kd [1] [µM] | Kd [2] [µM]
Mycoplasma pneumoniae enolase (from UniProt P75189 1-456) (enzyme) | > 1 | 0.3
Mycoplasma hyopneumoniae enolase (enzyme) | 0.0741 | 0.0625
Mycoplasma bovis enolase (from UniProt A0A454AQL1 1-454) (enzyme) | 0.486 | 0.0952
